Measured values as given in patent publication US20040001822A1, “Y1-isolated molecules comprising epitopes containing sulfated moieties, antibodies to such epitopes, and uses thereof” (priority 2000, published 2004).

Legend:
[1] = target: T1, recombinant bacterial derived glycocalicin (Homo sapiens, UniProt P07359); experiment: Western blot on recombinant glycocalicin expressed in E. coli; format: binding; conditions: E. coli cell lysates
T1 construct: GC, amino acid 1 to amino acid 493 of GPIbα; made in house; host or cells: E. coli BL21 DE3 (total cell lysate loaded on the gel)
Description: (§1) The DNA fragment encoding for glycocalicin (GC, amino acid 1 to amino acid 493 of GPIbα ) was cloned into an IPTG inducible prokaryotic vector cassette. E. coli (BL21 DE3) cells harboring the newly constructed plasmid were grown at 37° C. to O.D. 0.7-0.8, than at 37° C. for 3 hours for in the presence of IPTG for induction.
(§2) SDS-polyacrylamide gel loaded either with semi-purified human platelet derived glycocalicin (“GC”) or with E. coli cell lysates (“total”) derived from induced and non-induced cells were analyzed. Western blot analysis was performed with biotinylated Y1-scfv, polyclonal rabbit anti-human glycocalicin antibody, commercially available mouse anti-human CD42 monoclonal antibody (SZ2 Immunotech, PM640 Serotec, HIP1 Pharmigen, AN51 DAKO), and polyclonal antibody against the N-terminus of GPIbα (Sc-7071, Santa Cruz).
(§3) The DNA fragment encoding the N-terminal soluble part of human platelet GP1b-glycocalicin (GC, amino acid 1 to amino acid 493) was cloned into an IPTG inducible prokaryotic vector cassette. E. coli (BL21 DE3) cells harboring the newly constructed plasmid were grown at 37° C. to O.D. 0.7-0.8, than at 37° C. for 3 hours for in the presence of IPTG for induction. SDS-polyacrylamide gel loaded either with semi-purified human platelet derived GC or with E. coli cell lysates (total protein content) derived from induced and non-induced cells were analyzed. […]

[2] = system: RP-HPLC KG-1 membrane fraction; experiment: Western blot with Y1 on enzyme-treated KG-1 membrane fraction; format: binding, human
Text: Y1 ligand was further characterized using enzymatic treatments with proteases, glycanases, and […]; Western blotting with Y1, anti-CD42 antibodies, anti-CD162 antibodies and 181, immunoprecipitation using Y1 and anti-CD162 antibodies; FACS analysis using Y1 anti-CD162 antibodies; and sequencing.
The table below summarizes the biochemical experiments preformed to characterize and localize the Y1 binding site on KG-1 cells.
Western Blot Analysis with Y1 on SDS-PAGE Reducing Gels
The nitrocellulose membrane was blocked using 5% skim milk for one hour at room temperature. The membrane was then washed 3 times for 5 minutes each with 0.05% Tween 20 in PBS at room temperature. The membrane was incubated with 5 μg/ml Y1-biotin (or 181-biotin) in 2% skim milk in PBS for one hour at room temperature. The membrane was then washed 3 times for 5 minutes each with cold 0.05% Tween 20 in PBS in the cold room (about 4 to about 10° C.). The membrane was then incubated in the cold room with a 1:1000 dilution of SAV-HRP (streptavidin-HRP) (at a final concentration of […]) in 2% skim milk, 0.05% Tween. The dilution was carried out at room temperature (about 25° C.), then the diluted SAV-HRP was cooled on ice for 10-15 minutes before use. The incubation was carried out for 1 hour with gentle shaking. After the incubation with SAV-HRP, the membrane was washed, as above. The membrane was then incubated with Super Signal mixture (Pierce) for 5 minutes as directed in the commercial protocol, then excess solution was dried. The membrane was use to expose it to X-ray film (Fuji), and the film was developed.

[3] = target: T2, natural human platelet derived glycocalicin (Homo sapiens, UniProt P07359); experiment: Western blot on natural human platelet derived glycocalicin; format: binding; conditions: semi-purified human platelet derived glycocalicin
T2 construct: glycocalicin (soluble, extracellular fragment of GPIbα); from tissue; host or cells: human platelets
Description: as §1, §2, §3

Leukemia Cells = experiment: FACS of leukemia samples: anti-CD162 versus Y1; format: binding, human; conditions: 12 patient samples of Table 11
Description: Analysis of binding of scFv Y1 antibodies and anti-CD162 antibodies to diseased cells also illustrates that scFv Y1 has binding characteristics different from those of anti-CD162 antibodies. […] (Table F). Y1 binds to the leukemic cells in 10 of 12 samples. In contrast, anti-CD162 bound only 5 out of 12 samples. […] Thus, it may be concluded that, in leukemic cells, scFv Y1 binds to a ligand other than that recognized by anti-CD162.
Samples provided from hospitals. Patients sample 30 μl/tube. Add 5 μl/tube of CD33-APC (for AML) or CD19-APC (for B-CLL) or CD38-APC (for Multiple Myeloma). Add 5 μl/tube of CD45-PerCp and 5 μl of scFv-Y1 or control scFv-N31 or CD162-PE (KPL1). Incubate tubes 30 minutes at 4° C. with low shaking. Wash by adding 2 ml PBS and spin 5 minutes at 1200 rpm. Discard supernatant.
For a one step assay continue with the lysis step:
Add 500 μl BD Lysine solution diluted 1:10 with ddH2O (300 μl to patient sample). Vortex at high speed and incubate 12 minutes at 4° C. Wash as above. Discard supernatant. And add 500 μl PBS. The samples are read in the FACS using blood sample acquisition setup according to international standards.
For two or more assays: working buffer is PBS+1% BSA+0.05% sodium azide. Incubations and wash as above.
Lysis of the red blood cells is the final step in the assay, followed by resuspension with 500 μl PBS.

[4] = system: glycocalicin, platelet lysate, KG-1 cell lysate, Raji cell lysate; experiment: Western blot on glycocalicin, platelet, KG-1 and Raji lysates; format: binding, human; conditions: FIG. 20
Text: Antibodies against GPIbα (CD42b) recognize platelet lysate and glycocalicin and but not KG-1 cell lysate (a Y1 binding positive myeloid cell line) or Raji cell lysate (a B cell line that is negative for Y1 binding at concentrations at which KG-1 cells are positive for Y1 binding). […] (FIG. 20).

B1: Y1 scFv: fully human scFv clone binding platelets and myelogenous leukemia cells, SEQ ID NO: 25 (protein, listed as Homo sapiens)
scFv: MKYLLPTAAAGLLLLAAQPAMAEVQLVESGGGVVRPGGSLRLSCAASGFTFDDYGMSWVRQAPGKGLEWVSGINWNGGSTGYADSVKGRFTISRDNAKNSLYLQMNSLRAEDTAVYYCARMRAPVIWGQGTLVTVSRGGGGSGGGGSGGGGSSELTQDPAVSVALGQTVRITCQGDSLRSYYASWYQQKPGQAPVLVIYGKNNRPSGIPDRFSGSSSGNTASLTITGAQAEDEADYYCNSRDSSGNHVVFGGGTKLTVLGAAAEQKLISEEDLNGAA
With B1 the “recognition in Western blot” value [1] was “did not recognize”, the “Reactivity with Y1” value ([2]; Mocarhagin, 7′ at 37° C.) was “No” and the “Reactivity with Y1” value ([2]; O-Sialo glycoprotein endopeptidase, 30′ at 37° C., SDS-PAGE reducing gel) was “Reactivity”. The “Reactivity with Y1” value ([2]; O-Sialo glycoprotein endopeptidase, 4 hr at 37° C.) was “No”, the “Reactivity with Y1” value ([2]; aryl-sulfatase, 18 hr at 22° C.) was “No” and the “recognition in Western blot” value [3] was “recognized”. For the same molecule, the “recognition in Western blot” value ([3]; listed as scFv Y1) was “recognized only the natural human derived GC”, the “leukemia samples whose leukemic cells are bound” value (Leukemia Cells) was 10 of 12 and the “recognition in Western blot” value [4] was “recognized both glycocalicin, platelet lysate, and KG-1 cells, but not Raji cell extract”.
